One molecule from US20160289342A1 (Eli Lilly, published 2016) can be followed below.

The target of experiment [1] is T1, recombinant human soluble BAFF (human, UniProt Q9Y275 134-285).
T1 construct: domain: soluble BAFF; also called human BAFF; soluble human BAFF trimer
The experiment in a line: MSD-SET with biotinylated recombinant human soluble BAFF, N=3. On the procedure: Binding affinity and stoichiometry of the exemplified bispecific antibody to human BAFF is measured by MSD-SET using purified recombinant human soluble BAFF (expressed from HEK293 cells). Purified recombinant BAFF is biotinylated using EZ-Link Sulfo-NHS-LC biotin reagent (Thermo Scientific, p/n. 21335).
Multi-array 96-well assay plates (Meso Scale Discovery, p/n. L15XA-3) are coated with 3.5 μg/mL of bispecific antibody and incubated overnight at 4° C. Following incubation, the plates are washed three times with PBS, then blocked using 3% Blocker A solution for 45 minutes at room temperature. The plates are then washed again with PBS. Exemplified bispecific antibody, starting at a concentration of 224 pM, is serially diluted (using 2-fold dilutions) in a V-bottom 96-well plate creating 12 different bispecific antibody concentrations. 7 pM of biotinylated recombinant BAFF is mixed with each dilution of exemplified bispecific antibody and then incubated at 37° C. for 36-48 hours (to reach equilibrium). Equilibrated samples are added to a well of the MSD multi-array 96-well assay plate previously coated with exemplified bispecific antibody; samples are mixed for 2.5 minutes, and then washed three times with PBS. […] 1× Read Buffer T (Meso Scale Discovery, p/n. R92TC-1) is added to each well and plates are read on a MSDSI6000 plate reader (Meso Scale Discovery, Rockville Md.). […]

A further experiment concerns the target murine BAFF (murine, UniProt Q9WU72 127-309, limits assumed). The experiment in a line: not described.
The next experiment has as its target FcγIIIa (F158) receptor (UniProt P08637 17-254). The experiment in a line: cell-based or functional assay.
Another experiment has as its target FcγIIIa (V158) receptor (UniProt P08637 17-254). Briefly: cell-based or functional assay.

Sequence of murine BAFF (Q9WU72 127-309 limits assumed): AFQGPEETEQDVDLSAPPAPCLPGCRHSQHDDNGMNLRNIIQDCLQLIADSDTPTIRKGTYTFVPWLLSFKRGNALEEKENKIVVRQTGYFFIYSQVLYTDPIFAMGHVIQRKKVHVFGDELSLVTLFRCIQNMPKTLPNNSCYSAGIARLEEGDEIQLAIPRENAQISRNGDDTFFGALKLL
T1 sequence (Q9Y275 134-285 limits assumed): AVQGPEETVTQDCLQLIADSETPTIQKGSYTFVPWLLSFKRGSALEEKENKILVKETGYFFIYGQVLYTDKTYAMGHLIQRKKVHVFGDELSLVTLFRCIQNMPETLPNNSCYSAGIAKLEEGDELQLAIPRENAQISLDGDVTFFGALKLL
Sequence of FcγIIIa (V158) receptor (P08637 17-254 F176V): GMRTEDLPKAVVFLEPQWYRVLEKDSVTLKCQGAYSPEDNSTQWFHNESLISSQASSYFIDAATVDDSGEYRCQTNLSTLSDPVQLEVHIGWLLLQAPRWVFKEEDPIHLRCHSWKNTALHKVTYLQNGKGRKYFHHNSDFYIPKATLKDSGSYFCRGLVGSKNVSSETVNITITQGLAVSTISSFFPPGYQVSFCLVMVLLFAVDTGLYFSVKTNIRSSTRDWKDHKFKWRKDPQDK
Sequence of FcγIIIa (F158) receptor (P08637 17-254): as the sequence (P08637 17-254 F176V) above, with V160F counted along it

B1: exemplified bispecific antibody of Table 1 (anti-CD20 IgG1 mAb with anti-BAFF scFv linked at the N-terminus of each heavy chain) (bispecific antibody)
heavy: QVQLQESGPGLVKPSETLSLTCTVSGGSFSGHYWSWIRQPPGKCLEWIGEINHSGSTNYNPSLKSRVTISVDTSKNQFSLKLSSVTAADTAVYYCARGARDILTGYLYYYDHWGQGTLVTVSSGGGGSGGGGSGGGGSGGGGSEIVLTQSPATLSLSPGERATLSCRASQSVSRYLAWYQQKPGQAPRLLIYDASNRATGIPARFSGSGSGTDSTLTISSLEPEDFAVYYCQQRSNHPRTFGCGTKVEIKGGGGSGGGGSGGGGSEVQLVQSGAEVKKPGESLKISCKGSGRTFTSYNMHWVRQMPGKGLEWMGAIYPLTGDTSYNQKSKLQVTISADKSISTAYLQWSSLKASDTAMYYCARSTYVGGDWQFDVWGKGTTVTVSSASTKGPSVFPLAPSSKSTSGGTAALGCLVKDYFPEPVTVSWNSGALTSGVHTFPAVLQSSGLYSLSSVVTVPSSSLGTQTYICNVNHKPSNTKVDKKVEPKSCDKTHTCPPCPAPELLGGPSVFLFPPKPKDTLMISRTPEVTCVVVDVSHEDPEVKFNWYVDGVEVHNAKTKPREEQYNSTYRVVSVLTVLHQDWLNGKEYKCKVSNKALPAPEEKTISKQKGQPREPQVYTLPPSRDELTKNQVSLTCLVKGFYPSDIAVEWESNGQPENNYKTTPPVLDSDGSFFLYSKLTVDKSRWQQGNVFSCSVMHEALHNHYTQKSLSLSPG
light: EIVLTQSPGTLSLSPGERATLSCRASSSVPYIHWYQQKPGQAPRLLIYATSALASGIPDRFSGSGSGTDFTLTISRLEPEDFAVYYCQQWLSHPPTFGQGTKLEIKRTVAAPSVFIFPPSDEQLKSGTASVVCLLNNFYPREAKVQWKVDNALQSGNSQESVTEQDSKDSTYSLSSTLTLSKADYEKHKVYACEVTHQGLSSPVTKSFNRGEC
modifications: glycosylated at asparagine residue 566 of SEQ ID NO:1
notes: also called Exemplified Bispecific Ab; exemplified antibody
For orientation: Kd means the constant that tells how readily two partners part at equilibrium. B1: the dissociation constant Kd in experiment [1] was found to be 0.3 pM. The “fold reduction in binding as compared to human BAFF” value with murine BAFF was around 250 fold. Moreover, the “EC50 of NFAT-luciferase reporter signal (ADCC), WIL2-S + Jurkat (F158)” value with FcγIIIa (F158) receptor was 31.4 pM. Besides, the “EC50 of NFAT-luciferase reporter signal (ADCC), WIL2-S + Jurkat (V158)” value with FcγIIIa (V158) receptor came to 4.61 pM.
